Results published in the supplement of paper PMC6757056.
± gives the standard deviation of the averaged measurements.

B1: library; a variant is named by its letters at N, in order (parent)
chain: GCUGUCACCGGUGUAUUACCCUAGUGGUCGACCGGUCUGAUGAGUCUNNNNNNAGACGAAACAGC

Legend:
[1] = variants of: B1; experiment: FACS-Seq fitted mean relative fluorescence mCherry/BFP without ligand (log10 relative fluorescence); ligand: hypoxanthine (xanthine aptamer); higher = higher reporter protein expression; conditions: HEK293T, ligand present: no
Summary of the method: (§1)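 Fluorescence comes from a normal fit to bin counts, normalized against controls. HEK293T libraries lentivirally given a ribozyme-switch mCherry reporter and an EF1α-BFP marker were enriched, incubated 48 h with or without ligand, and sorted by mCherry/BFP into 6 bins. Bin genomic DNA was PCR-amplified, barcoded and sequenced on MiSeq. The log10(mCherry/BFP) mean was scaled to five spiked-in control ribozymes.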

[2] = variants of: B1; experiment: normalized RNA/DNA level with ligand (relative to sTRSVctl = 100) (log10 (% of sTRSVctl)); ligand: hypoxanthine (xanthine aptamer); higher = less ribozyme self-cleavage, higher mRNA level; conditions: ligand concentration (+) RNA-Seq: 5 mM, HEK293T, reporter: mCherry (pCS4076), ligand present: yes
Summary of the method: (§2)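 Total RNA, extracted with EDTA 72 h after HEK293T cells were transfected with 4 µg per 6-well well of reporter-linked ribozyme switch library plasmids, was reverse-transcribed, amplified, barcoded and sequenced. Ligand, if used, was added 1 h before transfection. RNA level was derived from RNA reads divided by DNA reads and normalized to a spiked-in non-cleaving sequence or to the top sequences. This was multiplied by 100 and log10-transformed, with the top set of 25 sequences and a ≥100 DNA read minimum.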

[3] = variants of: B1; experiment: normalized RNA/DNA level without ligand (relative to sTRSVctl = 100) (log10 (% of sTRSVctl)); ligand: hypoxanthine (xanthine aptamer); higher = less ribozyme self-cleavage, higher mRNA level; conditions: HEK293T, reporter: mCherry (pCS4076), ligand present: no
Summary of the method: as §2

[4] = variants of: B1; experiment: FACS-Seq fitted mean relative fluorescence mCherry/BFP with ligand (log10 relative fluorescence); ligand: hypoxanthine (xanthine aptamer); ligand concentration (+) FACS-Seq: 5 mM; higher = higher reporter protein expression; conditions: HEK293T, ligand present: yes
Summary of the method: as §1

Variant | FACS-Seq fitted mean (log10) [1] | normalized RNA/DNA level with ligand (log10) [2] | normalized RNA/DNA level without ligand (log10) [3] | FACS-Seq fitted mean (log10) [4]
UCUAUG | 0.305 ± 0.056 | 1.906 ± 0.008 | 1.74 ± 0.019 | 0.426 ± 0.018
UCUAUC | 0.701 ± 0.082 | 2.046 ± 0.019 | 2 ± 0.023 | 0.59 ± 0.08
ACUCUU | 0.342 ± 0.07 | 1.95 ± 0.029 | 1.84 ± 0.056 | 0.517 ± 0.056
ACUCUA | 0.438 ± 0.061 | 1.947 ± 0.0039 | 1.86 ± 0.055 | 0.585 ± 0.062
ACUCUG | 0.335 ± 0.0076 | 1.89 ± 0.054 | 1.516 ± 0.0021 | 0.677 ± 0.02
GCUUCG | 0.0523 ± 0.089 | 1.929 ± 0.006 | 1.59 ± 0.029 | 0.504 ± 0.069
UCUUGA | 0.296 ± 0.011 | 1.94 ± 0.035 | 1.51 ± 0.036 | 0.572 ± 0.0065
GCUCAA | 0.9407 ± 0.005 | 1.92 ± 0.041 | 1.71 ± 0.076 | 0.495 ± 0.11
ACGUAA | 0.16 ± 0.018 | 1.86 ± 0.072 | 1.491 ± 0.0093 | 0.4284 ± 0.0027
ACGUAG | -0.209 ± 0.01 | 1.61 ± 0.021 | 1.16 ± 0.054 | 0.574 ± 0.028
GCGUAU | 0.549 ± 0.031 | 1.83 ± 0.037 | 1.49 ± 0.046 | 0.824 ± 0.043
GCGUAG | -0.175 ± 0.014 | 1.566 ± 0.0039 | 1.15 ± 0.062 | 0.539 ± 0.027
GCGUAC | -0.0412 ± 0.02 | 1.82 ± 0.069 | 1.33 ± 0.025 | 0.4627 ± 0.0021
UGAAGA | 0.306 ± 0.01 | 1.896 ± 0.015 | 1.55 ± 0.025 | 0.576 ± 0.08
UGAAGU | 0.226 ± 0.04 | 1.87 ± 0.037 | 1.555 ± 0.012 | 0.496 ± 0.012
ACUCGA | 0.714 ± 0.029 | 1.958 ± 0.017 | 1.74 ± 0.043 | 0.665 ± 0.029
ACUCGG | 0.949 ± 0.075 | 1.87 ± 0.042 | 1.44 ± 0.12 | 0.651 ± 0.2
ACGGGG | -0.145 ± 0.048 | 1.81 ± 0.035 | 1.33 ± 0.058 | 0.5396 ± 0.0011

Variant | FACS-Seq fitted mean (log10) [1] | normalized RNA/DNA level with ligand (log10) [2] | normalized RNA/DNA level without ligand (log10) [3] | FACS-Seq fitted mean (log10) [4]
ACGGGC | 0.13 ± 0.011 | 1.94 ± 0.035 | 1.79 ± 0.035 | 0.4948 ± 0.0031
ACGGGU | 0.0468 ± 0.038 | 1.79 ± 0.025 | 1.33 ± 0.07 | 0.569 ± 0.011
ACUACG | 0.398 ± 0.086 | 1.93 ± 0.071 | 1.471 ± 0.0099 | 0.666 ± 0.077
ACUACU | 0.265 ± 0.031 | 1.93 ± 0.069 | 1.821 ± 0.01 | 0.443 ± 0.046
ACGUGG | 0.0467 ± 0.0087 | 1.54 ± 0.018 | 1.13 ± 0.016 | 0.697 ± 0.018
ACGUGA | -0.0934 ± 0.0088 | 1.808 ± 0.01 | 1.17 ± 0.023 | 0.256 ± 0.055
ACGUGU | 0.135 ± 0.003 | 1.87 ± 0.047 | 1.4 ± 0.027 | 0.682 ± 0.074
GCUGCG | 0.192 ± 0.0063 | 1.92 ± 0.057 | 1.6 ± 0.023 | 0.503 ± 0.0077
CGAAGA | 0.445 ± 0.018 | 1.97 ± 0.061 | 1.72 ± 0.049 | 0.65 ± 0.062
CGAAGG | 0.0138 ± 0.042 | 1.806 ± 0.015 | 1.4 ± 0.13 | 0.39 ± 0.041
UCUCAG | 0.173 ± 0.045 | 1.82 ± 0.061 | 1.34 ± 0.038 | 0.474 ± 0.094
CCUUGC | 0.165 ± 0.04 | 1.95 ± 0.082 | 1.86 ± 0.027 | -0.0481 ± 0.064
AGAAUG | -0.0981 ± 0.019 | 1.86 ± 0.034 | 1.42 ± 0.058 | -0.0321 ± 0.076
UGAACA | 0.901 ± 0.04 | 1.955 ± 0.014 | 1.86 ± 0.027 | 0.802 ± 0.072
UGAACU | -0.346 ± 0.014 | 1.913 ± 0.013 | 1.89 ± 0.0097 | 0.000122 ± 0.018
ACGUUG | -0.189 ± 0.0052 | 1.79 ± 0.033 | 1.28 ± 0.019 | 0.488 ± 0.021
GCUUUG | -0.186 ± 0.032 | 1.91 ± 0.048 | 1.56 ± 0.018 | 0.36 ± 0.05
